Results on 1 substance are retold here after patent US20150260724A1.

In the experiment the target is endogenous Fc epsilon receptor I (the IgE receptor) of RBL-2H3 cells (rat) (UniProt P12371). In words: cell-based or functional assay.
Chain of UniProt P12371 (P12371 24-245): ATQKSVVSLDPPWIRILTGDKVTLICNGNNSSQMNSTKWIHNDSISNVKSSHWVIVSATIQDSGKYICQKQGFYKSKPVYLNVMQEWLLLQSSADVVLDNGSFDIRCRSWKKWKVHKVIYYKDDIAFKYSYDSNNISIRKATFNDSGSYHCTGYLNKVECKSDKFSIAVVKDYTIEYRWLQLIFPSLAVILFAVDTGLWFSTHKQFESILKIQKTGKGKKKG

For “mouse IgE monoclonal antibody against trinitrophenyl hapten, purified from IgELb4 hybridoma (ATCC TIB-141)”, the FLUORESCENCE (IgE + TNP-BSA, specific exocytosis); 1B7-HEXB clone, HEXB substrate 4MU-NGlc, 30 min amounted to 28600; the FLUORESCENCE (IgE + TNP-BSA, specific exocytosis); 1C4-HEXB clone, HEXB substrate 4MU-NGlc, 30 min worked out at 39200; the FLUORESCENCE (IgE + TNP-BSA, specific exocytosis); 1F10-HEXB clone, HEXB substrate 4MU-NGlc, 30 min was found to be 17400; the FLUORESCENCE (IgE + TNP-BSA, specific exocytosis); 2D1-SEAP clone, phosphatase substrate fluorescein diphosphate, 30 min worked out at 62900. The FLUORESCENCE (IgE + TNP-BSA, specific exocytosis); RBL2H3-HEXB (whole stable population), HEXB substrate 4MU-NGlc, 30 min was 14100; the FLUORESCENCE (IgE + TNP-BSA, specific exocytosis); RBL2H3 cells, HEXB substrate 4MU-NGlc, 30 min was 6420; the FLUORESCENCE (IgE + TNP-BSA, specific exocytosis); RBL2H3 cells, phosphatase substrate fluorescein diphosphate, 30 min was determined as 29900; the LU… (IgE + TNP-BSA, specific exocytosis); supernatant of 12.500 GZB-GLuc cells, coelenterazine amounted to 997. For the same substance, the LU… (IgE + TNP-BSA, specific exocytosis); supernatant of 25.000 GZB-GLuc cells, coelenterazine came to 3780; the LU… (IgE + TNP-BSA, specific exocytosis); supernatant of 50.000 GZB-GLuc cells, coelenterazine is 4710; the LU… (IgE + TNP-BSA, specific exocytosis); supernatant of 100.000 GZB-GLuc cells, coelenterazine worked out at 6280.
